T1: mouse TNFR2 (mouse, UniProt P25119 23-258, limits assumed)
T1 sequence (looked up): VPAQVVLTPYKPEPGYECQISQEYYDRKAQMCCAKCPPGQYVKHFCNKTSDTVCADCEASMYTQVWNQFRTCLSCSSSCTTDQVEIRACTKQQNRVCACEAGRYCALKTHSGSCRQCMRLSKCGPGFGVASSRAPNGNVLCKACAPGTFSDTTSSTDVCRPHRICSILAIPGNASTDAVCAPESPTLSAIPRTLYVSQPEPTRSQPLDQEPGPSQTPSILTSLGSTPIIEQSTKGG

T2: human TNFR2 on the cell surface (CHO-TNFR2 cells; human Treg cells) (human, UniProt P20333 23-461)
T2 sequence (looked up): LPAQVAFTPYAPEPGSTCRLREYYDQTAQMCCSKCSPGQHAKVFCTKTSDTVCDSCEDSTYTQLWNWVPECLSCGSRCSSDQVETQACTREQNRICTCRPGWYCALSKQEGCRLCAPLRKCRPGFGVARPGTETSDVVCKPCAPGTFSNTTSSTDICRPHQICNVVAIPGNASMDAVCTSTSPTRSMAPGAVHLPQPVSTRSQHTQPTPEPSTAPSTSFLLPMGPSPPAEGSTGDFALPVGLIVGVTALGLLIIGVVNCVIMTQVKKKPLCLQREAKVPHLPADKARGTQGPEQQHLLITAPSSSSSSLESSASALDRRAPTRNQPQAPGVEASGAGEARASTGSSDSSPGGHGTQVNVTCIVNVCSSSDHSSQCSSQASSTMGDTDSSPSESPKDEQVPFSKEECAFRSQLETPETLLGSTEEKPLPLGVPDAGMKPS

T3: Human TNFR2 recombinant protein (Sino 10417-H08H) (human, UniProt P20333 23-257)
T3 construct: also called hTNFR2 (His tag)
T3 sequence (looked up): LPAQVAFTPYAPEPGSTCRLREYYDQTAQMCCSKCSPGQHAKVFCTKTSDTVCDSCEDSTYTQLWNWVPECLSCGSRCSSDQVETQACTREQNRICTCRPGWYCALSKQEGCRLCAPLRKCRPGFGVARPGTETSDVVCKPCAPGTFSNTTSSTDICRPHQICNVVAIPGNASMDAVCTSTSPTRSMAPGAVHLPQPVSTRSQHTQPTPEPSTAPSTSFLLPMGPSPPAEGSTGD

T4: cynomolgus TNFR2 (Sino 90102-C08H) (cynomolgus, UniProt A0A2K5VET2 132-366)
T4 construct: also called CynoTNFR2 (His tag)
T4 sequence: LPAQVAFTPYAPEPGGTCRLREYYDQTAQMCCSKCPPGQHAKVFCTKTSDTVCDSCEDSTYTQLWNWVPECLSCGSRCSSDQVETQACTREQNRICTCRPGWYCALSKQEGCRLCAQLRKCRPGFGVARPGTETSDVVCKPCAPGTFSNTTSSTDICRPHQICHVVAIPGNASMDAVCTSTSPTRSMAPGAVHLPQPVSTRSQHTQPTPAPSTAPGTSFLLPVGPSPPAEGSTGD

T5: human TNFR2 (Novoprotein, Catalog No. C830) (human, UniProt P20333 23-257, limits assumed)
T5 construct: construct not described; also called TNFR2 protein
T5 sequence (looked up): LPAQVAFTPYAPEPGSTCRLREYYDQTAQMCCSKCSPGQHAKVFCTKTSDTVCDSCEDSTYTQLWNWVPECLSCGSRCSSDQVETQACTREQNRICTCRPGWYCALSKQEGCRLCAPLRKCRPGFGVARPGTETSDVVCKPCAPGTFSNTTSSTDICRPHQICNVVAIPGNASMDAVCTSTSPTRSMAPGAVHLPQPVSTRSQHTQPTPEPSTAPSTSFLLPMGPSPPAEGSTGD


What was measured:
mouse TNFR2 = molecular target: T1, mouse TNFR2; assay: ELISA
[1] = molecular target: T2, human TNFR2 on the cell surface …; assay: cell-based or functional assay
[2] = molecular target: T3, Human TNFR2 recombinant protein (Sino …); assay: ELISA, coated antigen 0.5 ug/ml, antibody 28 ng/ml
Description: (§1) An microplate was pre-coated with 100 μl/well of 0.5 μg/ml human TNFR2 or cynomolgus TNFR2 (the same antigen protein as in Example 4). […] A mouse anti-human IgG Fc-HRP working solution (1:10000 dilution) was added to the plate at 100 μl/well after plate washing, and incubated with shaking at room temperature for 1.0 h. The plate was washed again, a HRP substrate TMB was added for color development prior to the termination of the reaction by adding termination solution. An microplate reader was used to read the absorption value.

[3] = molecular target: T4, cynomolgus TNFR2 (Sino 90102-C08H); assay: ELISA, coated antigen 0.5 ug/ml, antibody 28 ng/ml
Description: as §1

[4] = molecular target: T2, human TNFR2 on the cell surface …; assay: flow cytometry, blocking of TNFα-biotin on CHO-TNFR2 cells
Description: (§2) CHO cells that stably overexpressed human TNFR2 were used for experiments. The cells were resuscitated and passaged until in good state, and the expression level of human TNFR2 on the cells was assessed by FACS. Compared to the isotype control, the assay could be carried out when the fold change of mean fluorescence intensity (MFI) was more than 100 times.
(§3) CHO-TNFR2 cells were digested, washed twice with DPBS and stained with Live/Dead (L/D) at room temperature for 20 min, and then seeded at 1×10⁵ cells/50 μl/well. […] The diluted antibodies were added 50 μl/well into wells pre-seeded with cells, and gently blown and mixed to make the final concentrations of the antibodies to 20, 6.67, 2.22, 0.74, 0.247, 0.08, 0.027 and 0 nM, respectively followed by incubation at 4° C. for 30 min. […] After washing twice with the staining buffer, 100 μl/well of PE-streptavidin was added and incubated at 4° C. for 30 min. After additional washing with the staining buffer twice, 150 μl resuspended cells was analyzed using an flow cytometry. Taking the logarithmic value of the antibody concentrations as abscissa and the corresponding MFI value as ordinate, the inhibition curve of the antibody was drawn, and the IC50 value was calculated by four parameters fitting.

[5] = molecular target: T5, human TNFR2 (Novoprotein, Catalog No. …); assay: blocking ELISA, TNFα-biotin on coated human TNFR2, antibody 2 nM
Description: A microplate was pre-coated with 100 μl/well of 1 μg/ml human TNFR2 (Novoprotein, Catalog No. C830). […] After washing the plate, a Streptavidin-HRP working solution (1:10000 dilution) was added at 100 μl/well, and incubated with shaking at room temperature for 40 min. The plate was washed again, the HRP substrate TMB was added for color development, the termination solution was added to terminate the reaction, and the microplate reader was used to read the absorption value.

[6] = molecular target: T2, human TNFR2 on the cell surface …; assay: flow cytometry, blocking of TNFα-biotin on CHO-TNFR2 cells; against 002#
Description: as §2, §3

[7] = molecular target: T2, human TNFR2 on the cell surface …; assay: cell-based or functional assay; remark: listed apart in the source

Binder | binding result (mouse TNFR2) | % AUC versus positive control (#52), ADCC against Treg [1] | ELISA OD [2] | ELISA OD [3] | IC50 [4] | ELISA OD of antibodies to be tested (2 nM) [5] | IC50 Relative Value % [6] | proliferation inhibition (TNFα-induced Treg cell proliferation, against anti-Hel) [7]
TNFR2 antibody #395 (antibody, V domains shown) VH: EVQLQESGPVLVQPSQSLSITCTVSGFSLTSYSVHWVRQSPGKGLEWLGVIWSDGGTDYSAAFISRLSISKDNSKSQVFFKMNSLQADDTAIYYCARNDDGGDYAMDYWGQGTTVTVSS VL: EIVLTQSPALMSASPGEKVTMTCSASSSVSYMYWYQQKPRSSPKPWIYLTSNLASGVPARFSGSGSGTSYSLTISSMEAEDAATYYCQQWSSNPLTFGAGTKLEIK | no binding (tested: 28 ng/ml) | 59.3% | 3.17 OD | 3.15 OD | 0.021 µg/mL | 1.14 OD | 270% | 
TNFR2 antibody #125 (antibody, V domains shown) VH: EVQLQESGGGLVQPGGSLNLSCAASGFAFSIYDLSWVRQTPEKRLEWVAYINNGGISTYYSDTVKGRFTISRDNAKNTLYLQMSSLKSEDTAMYYCVRGPFYGSANYFDYWGQGTTVTVSS VL: DIQMTQSPASLSLSVGETVTITCRASENIYSNLAWYQQKQGKSPQLLVYDATKLAEGVPSRFSGSESGTQYSLKINSLQSEDFGTYYCQHFWVTPWTFGGGTKLEIK | no binding (tested: 28 ng/ml) | 69.6% | 3.32 OD | 3.25 OD | 0.109 µg/mL | 0.599 OD | 165% | 5.2%
TNFR2 antibody #001 (antibody, V domains shown, also called antibody #1) VH: EVQLQESGGGLVQPGGSLNLSCAASGFAFSTYDLSWVRQTPEKRLEWVAYINNGGISTYYSDTVKGRFTISRDNAKNTLYLQMSSLKSEDTAMYYCVRGPFYGSANYFDYWGQGTTVTVSS VL: EIVMTQSPASLSLSVGETVTITCRTSESIYSNLPWYQQKQGKSPQLLVYDATKLAEGVPSRFSGSESGTQYSLKINSLQSEDFGTYYCQHFWVTPWTFGGGTKLEIK | no binding (tested: 28 ng/ml) | 80.8% | 2.81 OD | 2.64 OD | 0.14 µg/mL | 0.805 OD | 65.6% | 17.1%

Second part, the binder after the results:

binding result (mouse TNFR2) | % AUC versus positive control (#52), ADCC against Treg [1] | ELISA OD [2] | ELISA OD [3] | IC50 [4] | ELISA OD of antibodies to be tested (2 nM) [5] | IC50 Relative Value % [6] | proliferation inhibition (TNFα-induced Treg cell proliferation, against anti-Hel) [7] | Binder
no binding (tested: 28 ng/ml) | 61.4% | 3.12 OD | 3.12 OD | 0.056 µg/mL | 1.78 OD | 171% |  | TNFR2 antibody #352 (antibody, V domains shown) VH: EVQLQESGPGLVAPSQSLSITCTVSGFSLTSYGVHWVRQPPGKGLEWLVVIWSDGGTTYNSALKSRLSISKDNSKSQVFLKMNSLQTDDTAMYYCARHDDDGYYAMDYWGQGTTVTVSS VL: DIVLTQSPSLMSASPGEKVTMTCSASSSVGYMYWYQQKPRSSPKPWIYLTSNLASGVPARFSGSGSGTSYSLTISSMEVEDAATYYCQQWSSDPFTFGSGTKLEIK
no binding (tested: 28 ng/ml) | 48.1% | 2.23 OD | 2.66 OD | 0.128 µg/mL | 1.44 OD | 132% |  | TNFR2 antibody #224 (antibody, V domains shown) VH: EVQLQESGPEIVKPGASVKLSCTASGFNNKDIYMHWVKQRPEQGLEWIGRIDPATGNTKHDPKFQDKATLSSDTSSNTAYLQFSSLTSEDTAVYYCAHSPYGDFGAMDYWGQGTTVTVSS VL: DIQMTQSPAIMSASLGERVTMTCTASSSVSSNYLHWYQQKPGSSPKLWIYSTSNLPSGVPARFSGSGSGTSYSLTISSMEAEDAATYYCHQYHRSPWTFGGGTKLEIK

Reference: US20220017630A1 (JIANGSU SIMCERE PHARMACEUTICAL, published 2022)
